The text below walks through data of publication PMC10269814, “New Perspectives on Escherichia coli Signal Peptidase I Substrate Specificity: Investigating Why the TasA Cleavage Site Is Incompatible with LepB Cleavage” (Microbiology Spectrum, 2023).

As usually defined, the IC50 is the concentration at which inhibition is half-maximal. Read a low IC50 as inhibition by little substance. As a reminder, the Kd is the equilibrium constant for the complex coming apart. A high value points to lower affinity. As a reminder, the MIC is the lowest concentration found to suppress growth. A low value points to inhibition by little substance. For orientation: koff means a measure of how fast the partners let go of each other. Read a high koff as a short-lived complex. The kon is the second-order rate constant of association. Low readings indicate slower complex formation, high ones faster complex formation.

One assay has as its target T1, LepB Δ2-76 (Escherichia coli, UniProt P00803).
T1 construct: made in house; host or cells: E. coli BL21(DE3)
Put plainly: biochemical. The procedure: The cleavage of the fluorescent peptide, Dabcyl-[…]-Edans, by LepB leads to an increase in relative fluorescence over time. If the ability of LepB to cleave this peptide is inhibited, the increase in relative fluorescence per second should decrease in a concentration-dependent manner.
A reaction in a 100-μL reaction mixture in phosphate-buffered saline (PBS) (pH 7.4) containing 0.1% Triton X-100 was initiated by adding 450 nM LepB Δ2-76 to a black, clear-bottom 96-well plate (Corning, Corning, NY, USA). In triplicate, wells contained a 2-fold serial dilution of the peptide being tested from 0.5 mg/mL and 10 μM fluorescent peptide, Dabcyl-[…]-Edans (Mimotopes, Mulgrave, VIC, Australia). While the peptide containing the two fluorophores is intact, the Edans emission is quenched by Dabcyl through FRET. However, once the peptide is cleaved by LepB, the fluorophores are no longer in close enough proximity for the transfer of energy and the fluorescence emission of Edans is recorded. The cleavage of the fluorescent peptide by LepB was recorded using an excitation wavelength of 340 nm and an emission wavelength of 490 nm recorded every 2 min for 30 min in a Tecan Infinite 200 Pro plate reader. Data were analyzed using the formula [(RFU2 − RFU1)/(time2 − time1)] = RFU/s on the linear portion of the reaction (where RFU stands for relative fluorescent units), and the absolute IC50 was determined using the simple linear regression analysis on Prism 9.

For assay [1], the target named is T2, LepB Δ2-76 His-SUMO (Escherichia coli signal peptidase I) (Escherichia coli, UniProt P00803).
T2 construct: purchased Sapphire Bioscience
Put plainly: biochemical. Type of assay: binding. The source says:
Surface plasmon resonance (SPR) analysis on a Pioneer FE system (Sartorius, Göttingen, Germany) was used to determine the on- and off-rates of custom peptides (Mimotopes, Mulgrave, VIC, Australia) with purchased LepB (Sapphire Bioscience, Redfern, NSW, Australia) ([9]). Briefly, LepB Δ2-76 His-SUMO was immobilized onto a CDH chip (Sartorius, Göttingen, Germany) onto flow cells 1 and 3 by an amine coupling reaction using 0.2 M 1-ethyl-3-[(3-dimethylamino)propyl]-carbodiimide (EDC) and 0.05 M N-hydroxysuccinimide (NHS). The EDC-NHS mix was caused to flow over at 15 μL/min for 100 s, LepB was injected at 10 μL/min for 10 min, and then ethanolamine was caused to flow over at 10 μL/min for 10 min. Flow cell 2 was used as a reference cell, and no LepB was injected over this cell. The assay was performed using a OneStep assay method with 75% of the loop. Peptides were caused to flow over the flow cells at a concentration of 50 μM at a flow rate of 50 μL/min with a dissociation period of 180 s. A regeneration cycle at a flow rate of 50 μL/min for 3 min with Tris-EDTA (TE) was completed after every cycle. Data were collected in triplicate, and analysis was completed with the Qdat analysis software (Sartorius, Göttingen, Germany; see Fig. S1 in the supplemental material).

For assay [2], the system named is Staphylococcus aureus FDA209. Type of assay: cell-based. Conditions: strain FDA209, rich medium, subinhibitory DMSO (5%), overnight 37°C. The procedure:
(§1) The resistance to the peptides was determined using MIC methods as previously described ([31]). Briefly, 5 × 10^5 cells were added to a 96-well plate which contained a peptide 2-fold serially diluted in either M9 minimal medium containing 5% DMSO and 0.2% glucose or Mueller-Hinton medium containing 5% DMSO. Plates were incubated overnight at 37°C, and the MIC result was scored as the last set of wells that contained no growth of bacteria. Bacteria tested were E. coli MG1655 containing an empty pBAD plasmid, E. coli BL21(DE3) containing an empty pET15b plasmid, S. aureus FDA209, and S. aureus USA300. Peptides 08 and 10 were tested from 0.5 mg/mL, and peptide 11 was tested from 1 mg/mL.

The test system of assay [3] is Staphylococcus aureus USA300. Type of assay: cell-based. Conditions: strain USA300, rich medium, subinhibitory DMSO (5%), overnight 37°C. The procedure: as §1
The test system of assay [4] is E. coli MG1655 (empty pBAD) and E. coli BL21(DE3) (empty pET15b). Put plainly: MIC assay against E. coli. Format: cell-based, Escherichia coli. Conditions: rich (Mueller-Hinton) and M9 minimal media, with or without subinhibitory DMSO (5%); overnight 37°C; peptides 08 and 10 from 0.5 mg/mL, 11 from 1 mg/mL. The procedure: as §1
Assay [5] has as its target LepB Δ2-76 (Escherichia coli (strain DH5α)) (UniProt P00803).
Assay [6] deals with LepB Δ2-76 His-SUMO (Escherichia coli) (UniProt P00803). Put plainly: SPR; LepB Δ2-76 His-SUMO amine-coupled (EDC/NHS) to a CDH chip, Pioneer FE; OneStep method with 75% of the loop; peptides flowed at 50 μM, 50 μL/min, 180 s dissociation; regeneration with Tris-EDTA; triplicate. (SPR reads the build-up and loss of mass on a sensor chip optically.)

Converted amounts (≈) assume the structure as drawn. “And” between values parts separate entries of the source, which are not always exact repeats. Identical values can stand only once. Ends that are not written are not given here. Peptide text beside a SMILES is read from it.

In the case of `C[C@H](N)C(=O)N[C@@H](C)C(=O)N[C@@H](Cc1ccccc1)C(=O)N[C@@H](CCC(=O)O)C(=O)O` [Peptide 11] (H-AAFE-OH), at LepB Δ2-76, the half-inhibitory concentration (IC50) was 3790 µM. The molecule also registered a dissociation constant (Kd) in assay [1] of 18.5 ± 0.62 µM. The minimal inhibitory concentration (MIC) in assay [2] and in assay [3] was 1000 µg/mL (≈ 2290 µM) each time.

TWAAFN [Peptide 07] gave a half-inhibitory concentration (IC50) on LepB Δ2-76 of 1970 µM. Also, binding in assay [1] was put at a Kd of 5.38 ± 0.2 µM.

At LepB Δ2-76, VGGGTWAAIEEGKL [Peptide 04] showed a half-inhibitory concentration (IC50) of 1680 µM. Also, in assay [1], the affinity, expressed as Kd, was 8.83 ± 2.59 µM.

On LepB Δ2-76, TWAAIE [Peptide 08] had a half-inhibitory concentration (IC50) of 647 µM. Binding in assay [1] was characterised by a dissociation constant (Kd) of 0.7 ± 0.35 µM.

At LepB Δ2-76, GGGTWAAIE [Peptide 06] gave an IC50 of 4520 µM. Binding in assay [1] was put at a Kd of 17.3 ± 0.2 µM.

Take GGTWAAIE [Peptide 10]: the Kd off-rate in assay [1] (SPR OneStep, LepB amine-coupled to CDH chip, peptide 50 μM, dissociation 180 s, mean ± standard error, triplicate) was 0.00421 s⁻¹ and 0.00421 ± 0.00049 s⁻¹. This molecule also came in with a Ka on-rate in assay [1] (SPR OneStep, Pioneer FE, LepB amine-coupled to CDH chip, peptide 50 μM, flow 50 μL/min, mean ± standard error, triplicate) of 4770 ± 590 M⁻¹ s⁻¹. For the same molecule, the minimum inhibitory concentration (MIC) entry in assay [4] was “No MIC was observed”.

In turn, GGTWAAFNDV [Peptide 03] gave an IC50 against LepB Δ2-76 of 1160 µM. This molecule also showed a Kd in assay [1] of 8.71 ± 2.14 µM.

Take GGTWAAFE [Peptide 05]: the IC50 at LepB Δ2-76 was 967 µM.

On LepB Δ2-76, GGGTWAAFEEGK [Peptide 01] gave an IC50 of 1600 µM. For the same molecule, the dissociation constant (Kd) in assay [1] amounted to 10.3 µM.

As for VGGGTWAAFETL [Peptide 02], at LepB Δ2-76, half-maximal inhibition (IC50) was put at 1010 µM. The Kd in assay [1] worked out at 12.8 ± 2.55 µM.

B1: peptide 05 (peptide)
peptide: GGTWAAFE
In assay [5], B1 yielded an IC50 of LepB cleavage of the fluorescent peptide Dabcyl-DAPPAKAA-Edans (FRET enzyme assay) of 810 µg/mL.

B2: peptide 11 (peptide)
peptide: AAFE
In assay [6], B2 returned an off-rate (koff) of 0.442 s⁻¹ and a kon of 15900 M⁻¹ s⁻¹. In addition, the IC50 of LepB cleavage of the fluorescent peptide Dabcyl-DAPPAKAA-Edans (FRET enzyme assay) in assay [5] was 1660 µg/mL.

B3: peptide 07 (peptide)
peptide: TWAAFN
On to B3, for which, in assay [6], the koff was 0.321 s⁻¹ and the on-rate (kon) is 60400 M⁻¹ s⁻¹. Further, in assay [5], the IC50 of LepB cleavage of the fluorescent peptide Dabcyl-DAPPAKAA-Edans (FRET enzyme assay) was determined as 1390 µg/mL.

B4: peptide 04 (peptide)
peptide: VGGGTWAAIEEGKL
Turning to B4, in assay [6], the off-rate constant (koff) stood at 0.17 s⁻¹ and the association rate constant (kon) is 26400 M⁻¹ s⁻¹. In assay [5], this molecule registered an IC50 of LepB cleavage of the fluorescent peptide Dabcyl-DAPPAKAA-Edans (FRET enzyme assay) of 2340 µg/mL.

B5: peptide 08 (peptide)
peptide: TWAAIE
Regarding B5, in assay [6], the koff came to 0.00239 s⁻¹ and the on-rate constant (kon) was found to be 2500 M⁻¹ s⁻¹. In addition, the IC50 of LepB cleavage of the fluorescent peptide Dabcyl-DAPPAKAA-Edans (FRET enzyme assay) in assay [5] was found to be 446 µg/mL.

B6: peptide 06 (peptide)
peptide: GGGTWAAIE
On to B6, for which, in assay [6], the koff is 0.0208 s⁻¹ and the kon came to 1200 M⁻¹ s⁻¹. Also, in assay [5], the IC50 of LepB cleavage of the fluorescent peptide Dabcyl-DAPPAKAA-Edans (FRET enzyme assay) worked out at 3890 µg/mL.

B7: peptide 03 (peptide)
peptide: GGTWAAFNDV
For the molecule B7, in assay [6], the koff worked out at 0.947 s⁻¹ and the kon was 146000 M⁻¹ s⁻¹. The molecule also yielded an IC50 of LepB cleavage of the fluorescent peptide Dabcyl-DAPPAKAA-Edans (FRET enzyme assay) in assay [5] of 1210 µg/mL.

B8: peptide 01 (peptide)
peptide: GGGTWAAFEEGK
In the case of B8, in assay [6], the koff worked out at 0.0434 s⁻¹ and the kon amounted to 4440 M⁻¹ s⁻¹. The IC50 of LepB cleavage of the fluorescent peptide Dabcyl-DAPPAKAA-Edans (FRET enzyme assay) in assay [5] is 1930 µg/mL.

B9: peptide 02 (peptide)
peptide: VGGGTWAAFETL
In assay [6], B9 displayed a dissociation rate constant (koff) of 0.0147 s⁻¹ and a kon of 1140 M⁻¹ s⁻¹. In assay [5], this molecule showed an IC50 of LepB cleavage of the fluorescent peptide Dabcyl-DAPPAKAA-Edans (FRET enzyme assay) of 1220 µg/mL.
